# Literature values in PMC4291147, “Molecular Basis of Histone Tail Recognition by Human TIP5 PHD Finger and Bromodomain of the Chromatin Remodeling Complex NoRC” (Structure(London, England:1993), 2015).
# pKd: −log10 of the molar value. Read-outs that look alike come from different tables or passages of the source.
# How the values were obtained:
# [1] = target: Histone H3 K14ac peptide (Homo sapiens) (UniProt P68431); assay: STD-NMR
# [2] = target: Histone H3 K14ac peptide (Homo sapiens) (UniProt P68431); assay: ITC
# [3] = target: Histone H3 K14ac peptide (Homo sapiens) (UniProt P68431)
# PCAF bromodomain, sequence (Q92831 720-830): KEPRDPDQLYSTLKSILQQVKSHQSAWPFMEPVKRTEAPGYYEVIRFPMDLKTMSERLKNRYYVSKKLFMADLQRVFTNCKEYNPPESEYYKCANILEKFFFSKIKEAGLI
# PCAF BRD, sequence (Q92831 723-827): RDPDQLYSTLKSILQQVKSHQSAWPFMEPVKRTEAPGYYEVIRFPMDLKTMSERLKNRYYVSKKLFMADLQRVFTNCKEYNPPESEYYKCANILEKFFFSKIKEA
# SMARCA4 bromodomain, sequence (P51532 1450-1567): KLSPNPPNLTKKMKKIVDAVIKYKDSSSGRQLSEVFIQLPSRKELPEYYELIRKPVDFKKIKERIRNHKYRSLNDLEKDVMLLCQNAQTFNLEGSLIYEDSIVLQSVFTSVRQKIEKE
# SMARCA2 BRD, sequence (P51531 1378-1506): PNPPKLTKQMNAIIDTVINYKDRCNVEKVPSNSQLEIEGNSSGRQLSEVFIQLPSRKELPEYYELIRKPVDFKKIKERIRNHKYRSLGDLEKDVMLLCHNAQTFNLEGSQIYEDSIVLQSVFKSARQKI
# SMARCA4 BRD, sequence (P51532 1453-1564): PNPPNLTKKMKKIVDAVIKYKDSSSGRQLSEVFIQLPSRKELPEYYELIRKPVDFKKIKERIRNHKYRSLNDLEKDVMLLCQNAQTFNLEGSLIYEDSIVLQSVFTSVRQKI
# PB1 BRD 2, sequence (Q86U86 177-287): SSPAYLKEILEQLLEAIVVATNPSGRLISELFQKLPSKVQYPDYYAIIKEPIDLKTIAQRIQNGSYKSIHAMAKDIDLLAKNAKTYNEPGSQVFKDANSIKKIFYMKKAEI
# PB1 BRD2, sequence (Q86U86 177-287): as above
# SMARCA2 bromodomain, sequence (P51531 1375-1509): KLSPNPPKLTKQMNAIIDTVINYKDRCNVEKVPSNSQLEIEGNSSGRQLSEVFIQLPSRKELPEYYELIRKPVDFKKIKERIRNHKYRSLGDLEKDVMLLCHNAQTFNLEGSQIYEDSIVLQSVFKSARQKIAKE
Substance,pKd [1],pKd [2],pKd [3]
PB1 BRD 2 (from UniProt Q86U86),3.30,–,–
SMARCA2 bromodomain (from UniProt P51531),–,3.55,–
PCAF bromodomain (from UniProt Q92831),3.89,3.73,–
SMARCA4 bromodomain (from UniProt P51532),2.92,–,–

# Second part, the substance after the results:
pKd [1],pKd [2],pKd [3],Substance
–,–,3.30,PB1 BRD2 (from UniProt Q86U86)
2.92,–,–,SMARCA4 BRD (from UniProt P51532)
–,3.55,–,SMARCA2 BRD (from UniProt P51531)
3.89,3.73,–,PCAF BRD (from UniProt Q92831)
